Test [1] concerns the target T1, AF9 YEATS domain, His-AF9 (1-138) (human, UniProt P42568 1-138).
T1 construct: Expressed in E. coli; not shown: His tag
T1 sequence (looked up): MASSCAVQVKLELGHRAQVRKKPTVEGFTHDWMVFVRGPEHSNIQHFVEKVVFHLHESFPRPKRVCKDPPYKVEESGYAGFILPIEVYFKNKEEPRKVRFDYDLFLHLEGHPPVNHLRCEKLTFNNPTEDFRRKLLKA
The experiment in a line: photo-cross-linking competition vs photoaffinity probe, in-gel fluorescence.

Test [2] has as its target T1, AF9 YEATS domain, His-AF9 (1-138). The experiment in a line: photo-cross-linking-based competition against the photoaffinity probe (probe 1) on AF9 YEATS domain, in-gel fluorescence.
Test [3] addresses T2, Gas41 YEATS domain, His-Gas41 (15-159) (human, UniProt O95619 15-159).
T2 construct: Expressed in E. coli; not shown: His tag
The experiment in a line: photo-cross-linking competition vs photoaffinity probe, in-gel fluorescence.

Test [4] addresses T3, YEATS2 YEATS domain, His-SUMO-YEATS2 (201-332) (human, UniProt Q9ULM3 201-332).
T3 construct: range 201-332; Expressed in E. coli; also called YEATS2 domain; not shown: His-SUMO tag
T3 sequence (looked up): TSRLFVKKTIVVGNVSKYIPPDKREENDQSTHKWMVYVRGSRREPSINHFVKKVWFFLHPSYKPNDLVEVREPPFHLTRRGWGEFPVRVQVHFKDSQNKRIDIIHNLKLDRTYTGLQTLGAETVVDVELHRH
The description is as above.

Test [5] addresses T4, ENL YEATS domain, His-SUMO-ENL (1-138) (human, UniProt Q03111 1-138).
T4 construct: Expressed in E. coli; not shown: His-SUMO tag
T4 sequence (looked up): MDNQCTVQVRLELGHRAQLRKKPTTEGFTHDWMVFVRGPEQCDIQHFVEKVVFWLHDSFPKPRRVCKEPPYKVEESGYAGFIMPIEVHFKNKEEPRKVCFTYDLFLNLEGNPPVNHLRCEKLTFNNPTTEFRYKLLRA
The description is as above.

In test [6] the target is T1, AF9 YEATS domain, His-AF9 (1-138). Kind of test: method and target not named in the sentence (AF9 YEATS by context).
Test [7] has as its target T3, YEATS2 YEATS domain, His-SUMO-YEATS2 …. The experiment in a line: photo-cross-linking-based competition against the photoaffinity probe on the YEATS2 YEATS domain, in-gel fluorescence.
Test [8] has as its target T2, Gas41 YEATS domain, His-Gas41 (15-159). Kind of test: photo-cross-linking competition vs photoaffinity probe, in-gel fluorescence. The source holds these as a separate data set.
The target of test [9] is T3, YEATS2 YEATS domain, His-SUMO-YEATS2 …. The description is as above. This is another data set of the same source.
Test [10] addresses T4, ENL YEATS domain, His-SUMO-ENL (1-138). The test is described as above. This is another data set of the same source.
Test [11] deals with T1, AF9 YEATS domain, His-AF9 (1-138). The test is described as above. The source holds these as a separate data set.
The target is the same in test [12]. Kind of test: ITC. (In general: ITC needs no label: the signal is the heat of the interaction.)
The target is the same in test [13]. Kind of test: ITC. This is another data set of the same source.
The target is the same in test [14]. The experiment in a line: photo-cross-linking competition screen at 0.3 µM, in-gel fluorescence.

Read-outs that look alike come from different tables or passages of the source. No end group written: not given here. *: point of attachment. Oxazole(5-CO) = O=C(c1cnco1)*; Crotonyl(E) = C/C=C/C(=O)*; 2Furoyl = O=C(c1ccco1)*; Cbz = O=C(OCc1ccccc1)*

The results in this text go back to patent US20210277061A1 (UNIVERSITY OF HONG KONG, published 2021).

T2 sequence (O95619 15-159 limits assumed): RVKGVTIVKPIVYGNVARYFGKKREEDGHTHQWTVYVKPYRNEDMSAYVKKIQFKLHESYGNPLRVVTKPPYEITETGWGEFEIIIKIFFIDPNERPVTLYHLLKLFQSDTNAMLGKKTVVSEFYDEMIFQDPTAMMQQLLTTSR

B1: compound 1 (XL-01) (peptide)
peptide: KQTARKSTGG-NH2
modifications: not fully specified (residue 6); also: Lys6 acylated with group R, structure drawing only
notes: also called 4.1
The term IC50 denotes the point on the concentration scale where inhibition reaches its midpoint. As to B1, the IC50 in test [1] was found to be 27900 nM; in [2] it was 31.8 µM.

B2: compound 26 (XL-07j) (peptide)
peptide: Cbz-QTARK(2Furoyl)-NH2
SMILES: C[C@H](NC(=O)[C@@H](NC(=O)[C@H](CCC(N)=O)NC(=O)OCc1ccccc1)[C@@H](C)O)C(=O)N[C@@H](CCCNC(=N)N)C(=O)N[C@@H](CCCCNC(=O)c1ccco1)C(N)=O
notes: also called 4.7j
Usually Kd stands for the concentration at which binding is half-saturated. In the case of B2, the IC50 in test [3] was 123 µM; in [4] it was 42.4 µM; in test [5], 1.3 µM; in [1], 260 nM; in test [7], 42.2 µM; in test [8] it was 123 µM. Besides, the half-maximal inhibitory concentration (IC50) in [9] was found to be 42.4 µM; in test [10] it was 1300 nM; in test [11], 260 nM. In test [6], this molecule had a Kd of 330 nM.

B3: compound 85 (positive control), H3K9cr peptide (peptide)
peptide: KQTARK(Crotonyl(E))STGG-NH2
modifications: N-terminus assumed
SMILES: C/C=C/C(=O)NCCCC[C@H](NC(=O)[C@H](CCCNC(=N)N)NC(=O)[C@H](C)NC(=O)[C@@H](NC(=O)[C@H](CCC(N)=O)NC(=O)[C@@H](N)CCCCN)[C@@H](C)O)C(=O)N[C@@H](CO)C(=O)N[C@H](C(=O)NCC(=O)NCC(N)=O)[C@@H](C)O
Regarding B3, the half-inhibitory concentration (IC50) in test [5] stood at 52.7 µM. In [1], the IC50 came out at 6000 nM. Further, binding in [12] was characterised by a dissociation constant (Kd) of 14.8 µM. Also, in [13], the Kd was determined as 14.7 µM, the “N (sites)” value is 0.96 sites, the ΔH was -11900 cal/mol and the ΔS was -17.8 cal/mol/deg.

B4: compound 27 (XL-13a) (peptide)
peptide: Cbz-QTARK(Oxazole(5-CO))-NH2
notes: also called 4.13a
For B4, the 50% inhibitory concentration (IC50) came out at 14.5 µM in test [3]; 98.7 µM in [4]; 240 nM in test [1]; 14.5 µM in [8]; 98.7 µM in test [9]; 240 nM in test [11]. For the same molecule, in test [6], the dissociation constant Kd is 131 nM.

B5: compound 43 (competitor R8-K) (peptide)
peptide: Cbz-QTAKK(2Furoyl)-NH2
SMILES: C[C@H](NC(=O)[C@@H](NC(=O)[C@H](CCC(N)=O)NC(=O)OCc1ccccc1)[C@@H](C)O)C(=O)N[C@@H](CCCCN)C(=O)N[C@@H](CCCCNC(=O)c1ccco1)C(N)=O
notes: Full structure only as drawing
Regarding B5, the binding result in [14] is on record as “binds”.

B6: compound 45 (competitor R8-Q) (peptide)
peptide: Cbz-QTAQK(2Furoyl)-NH2
SMILES: C[C@H](NC(=O)[C@@H](NC(=O)[C@H](CCC(N)=O)NC(=O)OCc1ccccc1)[C@@H](C)O)C(=O)N[C@@H](CCC(N)=O)C(=O)N[C@@H](CCCCNC(=O)c1ccco1)C(N)=O
notes: as for B5
In the case of B6, in test [14], the binding result was “binds”.

B7: compound 13 (XL-13) (peptide)
peptide: KQTARK(Oxazole(5-CO))STGG-NH2
modifications: N-terminus assumed
SMILES: C[C@H](NC(=O)[C@@H](NC(=O)[C@H](CCC(N)=O)NC(=O)[C@@H](N)CCCCN)[C@@H](C)O)C(=O)N[C@@H](CCCNC(=N)N)C(=O)N[C@@H](CCCCNC(=O)c1cnco1)C(=O)N[C@@H](CO)C(=O)N[C@H](C(=O)NCC(=O)NCC(N)=O)[C@@H](C)O
notes: also called 4.13
For the molecule B7, in [1], the concentration for half-maximal inhibition (IC50) was 740 nM. Besides, the “fold binding enhancement over the native crotonyl group (H3K9cr)” value in test [12] was determined as 14.8 fold. In addition, in test [13], the Kd turned out to be 1 µM, the “N (sites)” value was 1.04 sites, the ΔH was -12300 cal/mol and the ΔS is -13.8 cal/mol/deg.
